Values belong to the binder of their own block, whether it stands above or below them.
What was measured:
[1] = target: T1, 4H535-AA; assay: two-hybrid library CCmax; details: mean of both orientations;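 note: natural log of median RNA to DNA barcode read ratio; higher means stronger binding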
T1 chain: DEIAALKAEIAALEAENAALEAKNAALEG

[2] = target: T2, 4H_APH; assay: two-hybrid library CCmax; details: mean of both orientations;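 note: natural log of median RNA to DNA barcode read ratio; higher means stronger binding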
T2 chain: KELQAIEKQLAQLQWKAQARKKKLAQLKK

[3] = target: 4H_GCN4; assay: two-hybrid library CCmax; details: mean of both orientations;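 note: natural log of median RNA to DNA barcode read ratio; higher means stronger binding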
[4] = target: T3, 4H465-AA; assay: two-hybrid library CCmax; details: mean of both orientations;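 note: natural log of median RNA to DNA barcode read ratio; higher means stronger binding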
T3 chain: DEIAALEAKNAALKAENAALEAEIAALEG

[5] = target: GCN2_T; assay: two-hybrid library CCmax;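 note: natural log of median RNA to DNA barcode read ratio; higher means stronger binding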
[6] = target: T4, 4H58-AA; assay: two-hybrid library CCmax; details: mean of both orientations;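 note: natural log of median RNA to DNA barcode read ratio; higher means stronger binding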
T4 chain: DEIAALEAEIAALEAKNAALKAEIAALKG

[7] = target: T5, 4H_BCR; assay: two-hybrid library CCmax; details: mean of both orientations
T5 chain: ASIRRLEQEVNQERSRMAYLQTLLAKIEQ

[8] = target: T6, 4H486-AA; assay: two-hybrid library CCmax; details: mean of both orientations
T6 chain: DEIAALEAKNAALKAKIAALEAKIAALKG

[9] = target: T7, 4H3782-AA; assay: two-hybrid library CCmax; details: mean of both orientations
T7 chain: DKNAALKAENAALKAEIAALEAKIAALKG

[10] = target: T8, 4H3705-AA; assay: two-hybrid library CCmax
T8 chain: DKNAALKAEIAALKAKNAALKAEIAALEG

[11] = target: T9, 4H895-AA; assay: two-hybrid library CCmax; details: mean of both orientations
T9 chain: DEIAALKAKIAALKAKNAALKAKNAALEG

[12] = target: T10, O8-bS; assay: two-hybrid library CCNG1
T10 chain: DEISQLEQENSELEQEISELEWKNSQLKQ

[13] = target: T11, O7-bS; assay: two-hybrid library CCNG1
T11 chain: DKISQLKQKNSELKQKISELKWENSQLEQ

[14] = target: T12, O9-bS; assay: two-hybrid library CCNG1
T12 chain: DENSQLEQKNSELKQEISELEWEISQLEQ

[15] = target: T13, O8-bP; assay: two-hybrid library CCNG1
T13 chain: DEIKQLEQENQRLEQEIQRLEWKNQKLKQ

[16] = target: T14, O7-bP; assay: two-hybrid library CCNG1
T14 chain: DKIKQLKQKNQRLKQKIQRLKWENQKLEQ

[17] = target: T15, O9-bP; assay: two-hybrid library CCNG1
T15 chain: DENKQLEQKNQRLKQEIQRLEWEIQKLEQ

[18] = target: T16, O6-bP; assay: two-hybrid library CCNG1
T16 chain: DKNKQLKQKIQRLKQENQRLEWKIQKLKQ

[19] = target: T17, 4H3381-bH; assay: two-hybrid library CCNG1
T17 chain: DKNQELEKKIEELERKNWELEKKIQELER

[20] = target: T18, 4H349-bH; assay: two-hybrid library CCNG1
T18 chain: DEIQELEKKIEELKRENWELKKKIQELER

[21] = target: T19, 4H949-bH; assay: two-hybrid library CCNG1
T19 chain: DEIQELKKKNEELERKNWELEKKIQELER

[22] = target: T20, 4H3364-bH; assay: two-hybrid library CCNG1
T20 chain: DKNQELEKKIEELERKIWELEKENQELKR

[23] = target: T21, 4H56-bH; assay: two-hybrid library CCNG1
T21 chain: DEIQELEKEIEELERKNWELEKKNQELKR

[24] = target: T22, 4H932-bH; assay: two-hybrid library CCNG1
T22 chain: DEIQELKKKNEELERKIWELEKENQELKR

[25] = target: T23, 4H796-bH; assay: two-hybrid library CCNG1
T23 chain: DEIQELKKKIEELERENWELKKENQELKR

[26] = target: T24, 4H370-bH; assay: two-hybrid library CCNG1
T24 chain: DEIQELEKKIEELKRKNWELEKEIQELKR

[27] = target: T25, 4H730-bH; assay: two-hybrid library CCNG1
T25 chain: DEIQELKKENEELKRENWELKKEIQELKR

[28] = target: T26, 4H3297-bH; assay: two-hybrid library CCNG1
T26 chain: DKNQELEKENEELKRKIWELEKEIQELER

[29] = target: T27, P3-AA; assay: two-hybrid library CCmax; details: mean of both orientations
T27 chain: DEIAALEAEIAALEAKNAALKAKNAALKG

[30] = target: T28, P9-AA; assay: two-hybrid library CCmax; details: mean of both orientations
T28 chain: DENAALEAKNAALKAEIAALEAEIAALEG

[31] = target: T29, P12-AA; assay: two-hybrid library CCmax; details: mean of both orientations
T29 chain: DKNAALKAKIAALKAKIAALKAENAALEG

[32] = target: T30, P2-AA; assay: two-hybrid library CCmax; details: mean of both orientations
T30 chain: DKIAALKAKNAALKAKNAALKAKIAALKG

[33] = target: T31, P11-AA; assay: two-hybrid library CCmax; details: mean of both orientations
T31 chain: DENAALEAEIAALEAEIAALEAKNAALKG

[34] = target: T32, zCON9_B; assay: two-hybrid library CCmax; details: mean of both orientations
T32 chain: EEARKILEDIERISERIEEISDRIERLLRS

[35] = target: T33, zCON9_D; assay: two-hybrid library CCmax
T33 chain: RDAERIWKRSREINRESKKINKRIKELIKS

[36] = target: T34, zCON9_A; assay: two-hybrid library CCmax; details: mean of both orientations
T34 chain: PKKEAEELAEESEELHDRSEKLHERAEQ

[37] = target: T35, P8-AA; assay: two-hybrid library CCmax; details: mean of both orientations
T35 chain: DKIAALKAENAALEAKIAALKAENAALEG

[38] = target: T36, P7-AA; assay: two-hybrid library CCmax; details: mean of both orientations
T36 chain: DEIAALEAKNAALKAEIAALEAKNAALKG

[39] = target: T37, P10-AA; assay: two-hybrid library CCmax
T37 chain: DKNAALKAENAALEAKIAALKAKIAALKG

[40] = target: T38, P4-AA; assay: two-hybrid library CCmax; details: mean of both orientations
T38 chain: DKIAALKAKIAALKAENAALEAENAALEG

Sequence of 4H_GCN4 (chain, as listed by the source): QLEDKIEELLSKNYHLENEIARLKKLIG

interaction score [1]: -0.26
interaction score [2]: -2.68
interaction score [3]: -1.4
interaction score [4]: -1.21
interaction score [5]: -1.92
interaction score [6]: 0.517
interaction score [7]: -1.43
interaction score [8]: -1.65
interaction score [9]: -1.26
interaction score [10]: -1.2
interaction score [11]: -1.78
Binder: DKNAALKAEIAALKAKNAALKAEIAALEG [4H3705-AA]

interaction score [12]: 0.93
interaction score [13]: -1.01
interaction score [14]: -1.07
Binder: DKISQLKQKNSELKQKISELKWENSQLEQ [O7-bS]

interaction score [15]: -2.38
interaction score [16]: -0.618
interaction score [17]: -0.21
interaction score [18]: -0.702
Binder: DKNKQLKQKIQRLKQENQRLEWKIQKLKQ [O6-bP]

interaction score [19]: -0.113
interaction score [20]: -0.0353
interaction score [21]: -1.66
interaction score [22]: -0.362
interaction score [23]: -1.32
interaction score [24]: -0.844
interaction score [25]: -0.673
interaction score [26]: 0.804
interaction score [27]: -0.0968
interaction score [28]: 0.885
Binder: DKNQELEKENEELKRKIWELEKEIQELER [4H3297-bH]

interaction score [29]: -0.118
interaction score [30]: 2.32
interaction score [31]: -1.23
interaction score [32]: -1.38
interaction score [33]: 1.43
interaction score [34]: -0.0248
interaction score [35]: -1.97
interaction score [36]: -1.58
interaction score [37]: -1.28
interaction score [38]: -0.0691
interaction score [39]: -0.869
interaction score [40]: -1.35
Binder: DKNAALKAENAALEAKIAALKAKIAALKG [P10-AA]
